{"source": "paper PMC3115443", "biological_target": "326^βB (TP0326 β-barrel construct with a C-terminal His-tag) (Treponema pallidum subspecies pallidum (Nichols-Farmington strain))", "experiment": "native gel or EMSA", "data": [{"substance": "326^βB (TP0326 β-barrel construct with a C-terminal His-tag) (domain or fragment)", "values": [{"measurement": "stoichiometry N", "result": 3}]}]}
